Source: article PMC1853097, “The high-resolution NMR structure of the R21A Spc-SH3:P41 complex: Understanding the determinants of binding affinity by comparison with Abl-SH3” (BMC Structural Biology, 2007)
Like-named read-outs stand apart in the source and are kept apart here.

How the values were obtained:
[1] = molecular target: R21A mutant of the α-spectrin SH3 domain (R21A Spc-SH3); test: ITC titration of R21A Spc-SH3 with p41; type: binding, chicken; conditions: 25°C, global fit of three isotherms, error = 95% confidence interval
Protocol: (§1) The binding between the p41 decapeptide and the R21A Spc-SH3 mutant domain was studied by a combination of isothermal titration calorimetry (ITC) and differential scanning calorimetry (DSC) experiments. ITC experiments were performed at 25°C at both pH 3.0 and 7.0, using several buffers at a concentration of 20 mM. Similar ITC experiments were made with the WT Spc-SH3 domain for comparison. […] The contribution of protonation/deprotonation processes to the binding enthalpy change, was estimated using three buffers differing in their ionization heats (Figure 1B).
(§2) ITC experiments were performed at 25°C in a high-precision MCS titration calorimeter (Microcal Inc., Northampton, MA). Prior to the experiments the protein was extensively dialyzed at 4°C against the appropriate buffer. The solutions of p41 peptide were prepared by dissolving the lyophilized material directly into the buffer and subsequently adjusting the pH of the solution. All buffers and solutions were filtered and degassed and equilibrated to the working temperature prior to each experiment. […] The binding constant, Kb, and the enthalpy change of binding, ΔHb, were determined by global fitting of the three binding isotherms measured in different buffers, using a model of binding to a single set of identical sites, according to the equation: […]

[2] = molecular target: WT α-spectrin SH3 domain (WT Spc-SH3); test: ITC titration of WT Spc-SH3 with p41; type: binding, chicken; parameters: unit not given here; conditions: 25°C, global fit of three isotherms, error = 95% confidence interval
Protocol: as §1, §2

[3] = tested on: WT α-spectrin SH3 domain (WT Spc-SH3); conditions: Spc-SH3 relative to Abl-SH3; cited from earlier work
From the text: Background SH3 domains are small protein modules of 60–85 amino acids that bind to short proline-rich sequences with moderate-to-low affinity and specificity. Interactions with SH3 domains play a crucial role in regulation of many cellular processes (some are related to cancer and AIDS) and have thus been interesting targets in drug design. The decapeptide APSYSPPPPP (p41) binds with relatively high affinity to the SH3 domain of the Abl tyrosine kinase (Abl-SH3), while it has a 100 times lower affinity for the α-spectrin SH3 domain (Spc-SH3). Results Here we present the high-resolution structu ... || Here we present the solution structure of the R21A mutant of the α-spectrin SH3 domain (Spc-SH3), both in its free form and bound to the decapeptide APSYSPPPPP (p41). We also show a complete thermodynamic characterization of the SH3-p41 interaction by calorimetric methods, together with an analysis of its effect upon the conformational dynamics of the SH3 domain using amide hydrogen-deuterium exchange (HX). The p41 peptide was initially designed as a high-affinity and high-specificity ligand for the Abl-SH3 domain [6] and the crystal structure of the complex was subsequently determined [[12] ...

[4] = molecular target: SH3 domain of the Abl tyrosine kinase (Abl-SH3); conditions: cited from earlier work; for Kb (binding constant): ITC, 25°C
From the text: The affinities are much lower than that of the Abl-SH3 domain for p41 under similar conditions, which is in the range of 2 × 10^5 – 4 × 10^5 M^-1 [16]. In all cases the binding is driven by a large and favourable enthalpy change, partially compensated by an unfavourable entropy change. A similar thermodynamic signature is usually observed for the binding of proline-rich peptides to other SH3 domains. The very small variation of the binding enthalpies with the ionization enthalpy of the buffers ... || We have performed a global analysis of the ΔCpapp MathType@MTEF@5@5@+=feaafiart1ev1aaatCvAUfKttLearuWrP9MDH5MBPbIqV92AaeXatLxBI9gBaebbnrfifHhDYfgasaacH8akY=wiFfYdH8Gipec8Eeeu0xXdbba9frFj0=OqFfea0dXdd9vqai=hGuQ8kuc9pgc9s8qqaq=dirpe0xb9q8qiLsFr0=vr0=vr0dc8meaabaqaciaacaGaaeqabaqabeGadaaakeaacqqHuoarcqWGdbWqdaqhaaWcbaGaemiCaahabaGaemyyaeMaemiCaaNaemiCaahaaaaa@34D4@ curves using a simple model in which the protein/ligand binding and protein unfolding equilibria are coupled (Figure 2). This analysis is, with minor modifications, similar to that used previously for the analysis of the interaction be ...

p41 decapeptide [5] = test: ITC (quoted from reference 16, Palencia et al. 2004); conditions: 25 °C (Table 1 title), not stated ('under similar conditions'), cited from earlier work; for Kb: scale: 10^3 M^-1
p41 decapeptide [6] = test: ITC (Microcal MCS); conditions: 25 °C, added salt not given, 20 mM buffer only, Three buffers of different ionisation heat at each pH, each 20 mM. At pH 7.0: phosphate, hepes and imidazole (named in F); for Kb: scale: 10^3 M^-1

APSYSPPPPP [p41, synthetic decapeptide …, both acetylated and methylated in its termini]
Kb (binding constant) ([1]; pH 3.0, 20 mM buffers): 18.2 ± 2.0 ×10^-3 M^-1 | Kb (binding constant) ([1]; pH 7.0, 20 mM buffers (phosphate, hepes, imidazole), single set of identical sites): 18.1 ± 1.9 ×10^-3 M^-1 | Kb (binding constant) ([2]; pH 3.0, 20 mM buffers): 5.8 ± 0.8 ×10^-3 | Kb (binding constant) ([2]; pH 7.0, 20 mM buffers): 5.2 ± 1.2 ×10^-3 | times lower affinity for Spc-SH3 than for Abl-SH3 [3]: 100 times | Kb (binding constant) ([4]; pH 3.0): 210000 M⁻¹ | Kb (binding constant) ([4]; pH 7.0): 323000 M⁻¹ | affinity of the Abl-SH3 domain for p41 (binding constant) ([4]; under similar conditions): 200000 to 400000 M⁻¹

Abl tyrosine kinase SH3 domain (Abl-SH3)
ΔGb (p41 decapeptide [5]; pH 3.0): -7.27 kcal/mol | Kb (p41 decapeptide [5]; pH 3.0): 210 | p (protons per mole of ligand bound) (p41 decapeptide [5]; pH 7.0): 0.1 | ΔGb (p41 decapeptide [5]; pH 7.0): -7.5 kcal/mol | Kb (p41 decapeptide [5]; pH 7.0): 323

alpha-spectrin SH3 domain (Spc-SH3), R21A mutant R21A
p (protons per mole of ligand bound) (p41 decapeptide [6]; pH 3.0): -0.29 | ΔGb (p41 decapeptide [6]; pH 3.0): -5.81 kcal/mol | Kb (p41 decapeptide [6]; pH 3.0): 18.2 | p (protons per mole of ligand bound) (p41 decapeptide [6]; pH 7.0): 0.06 | ΔGb (p41 decapeptide [6]; pH 7.0): -5.81 kcal/mol | Kb (p41 decapeptide [6]; pH 7.0): 18.1

alpha-spectrin SH3 domain (Spc-SH3), wild type
p (protons per mole of ligand bound) (p41 decapeptide [6]; pH 3.0): -0.07 | ΔGb (p41 decapeptide [6]; pH 3.0): -5.14 kcal/mol | Kb (p41 decapeptide [6]; pH 3.0): 5.8 | p (protons per mole of ligand bound) (p41 decapeptide [6]; pH 7.0): 0.01 | ΔGb (p41 decapeptide [6]; pH 7.0): -5.07 kcal/mol | Kb (p41 decapeptide [6]; pH 7.0): 5.2
